Measured values: patent US7943574B2, “Cell-permeable peptide inhibitors of the JNK signal transduction pathway” (Xigen SA, priority 2002, dated 2011)
“Also recorded” adds a separate entry of the source. Residues, ends and D or L forms follow the SMILES beside them.

Assays:
[1] = tested on: developing rat cortical neurons; test: Incubation of developing rat cortical neurons with peptide (toxicity, neuron number); conditions: 1 μM peptide, versus control developing rat cortical neurons (FIG. 4)
[2] = biological target: T1, SH3 domain of IB1 (MKK7 binding) (Homo sapiens, UniProt Q9UQF2); test: Pull-down of 35S-labelled MKK7 on GST-SH3 domain of IB1; conditions: GST-SH3 domain of IB1, 35S-labelled MKK7 (FIG. 2)
T1 construct: the SH3 domains of IB1 and IB2 were subcloned using PCR into the pGEX-4T1 vector in frame with the GST; GST (N); made in house; host or cells: E. coli
T1 sequence (Q9UQF2 488-549 limits assumed): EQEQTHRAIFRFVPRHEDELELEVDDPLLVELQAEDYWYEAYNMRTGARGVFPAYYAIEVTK
Protocol: (§1) Effects of the αSH3 peptide on JNK biological activities were then studied. […] In the pull-down experiments, the SH3 domains of IB1 and IB2 were subcloned using PCR into the pGEX-4T1 vector in frame with the GST (Pharmacia). The recombinant proteins were produced in E. coli. Purification was performed in native conditions using a glutathione-agarose column (Pharmacia). ^35S-labelled MKK7 was then used in classical pull-down experiments.

[3] = biological target: T2, SH3 domain of IB2 (MKK7 binding) (Homo sapiens, UniProt Q13387); test: Pull-down of 35S-labelled MKK7 on GST-SH3 domain of IB2; conditions: GST-SH3 domain of IB2, 35S-labelled MKK7 (FIG. 2)
T2 construct: the SH3 domains of IB1 and IB2 were subcloned using PCR into the pGEX-4T1 vector in frame with the GST; GST (N); made in house; host or cells: E. coli
T2 sequence (Q13387 604-665 limits assumed): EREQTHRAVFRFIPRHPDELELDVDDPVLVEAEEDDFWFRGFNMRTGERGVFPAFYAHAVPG
Protocol: as §1

Row | blocking of the binding of MKK7 to IB1 [2] | blocking of the binding of MKK7 to IB2 [3] | Molecule | toxicity on developing neurons (residual necrotic bodies) [1]
1 |  |  | CSCC[C@H](NC(=O)CNC(=O)[C@@H](NC(=O)[C@H](CO)NC(=O)[C@@H](NC(=O)[C@H](CO)NC(=O)[C@H](CCCNC(=N)N)NC(=O)[C@H](CCCNC(=N)N)NC(=O)[C@H](CCCNC(=N)N)NC(=O)[C@H](CCC(N)=O)NC(=O)[C@H](CCCNC(=N)N)NC(=O)[C@H](CCCNC(=N)N)NC(=O)[C@H](CCCCN)NC(=O)[C@H](CCCCN)NC(=O)[C@@H](N)CCCNC(=N)N)C(C)C)C(C)C)C(=O)N1CCC[C@H]1C(=O)N1CCC[C@H]1C(=O)N[C@@H](CO)C(=O)N1CCC[C@H]1C(=O)N[C@@H](CCCNC(=N)N)C(=O)N1CCC[C@H]1C(=O)O [TAT-αSH3] (H-RKKRRQRRRSVSVGMPPSPRP-OH) | lacked residual necrotic bodies; also recorded: not toxic
2 | efficiently blocks | efficiently blocks | αSH3: consensus SH3 binding peptide, 12 aa, SVSVGMPPSP RP (SVSVGMPPSPRP) | 
